One data set addresses XLF FL (Homo sapiens, UniProt Q9H9Q4 1-299). Briefly: tryptophan fluorescence quenching.
For a further data set, the target named is XLF(1-248) (Homo sapiens, UniProt Q9H9Q4 1-248). Briefly: tryptophan fluorescence quenching.
The target in another data set is XRCC4 FL (Homo sapiens, UniProt Q13426 1-336). Description: tryptophan fluorescence quenching.
The target of data set [1] is Ku70/80 heterodimer;XLF FL;XRCC4(1-140) (Homo sapiens (HeLa);Homo sapiens;Homo …, UniProt P12956;P13010;Q9H9Q4;Q13426 2-609;2-732;1-299;1-140, ||). Briefly: SEC co-elution and SAXS.
In a further data set the target is XLF FL;XRCC4(1-140) (Homo sapiens;Homo sapiens, UniProt Q9H9Q4;Q13426 1-299;1-140, |). Briefly: SAXS titration.
The target of another data set is XLF(1-224);XRCC4(1-140) (Homo sapiens;Homo sapiens, UniProt Q9H9Q4;Q13426 1-224;1-140, |). Description: SAXS titration.
A further data set deals with XRCC4 FL;XLF(1-248) (Homo sapiens;Homo sapiens, UniProt Q13426;Q9H9Q4 1-336;1-248, |). Description: tryptophan fluorescence quenching.
Chain of XRCC4 FL;XLF(1-248) (Q13426 whole entry, chain 1 of 2): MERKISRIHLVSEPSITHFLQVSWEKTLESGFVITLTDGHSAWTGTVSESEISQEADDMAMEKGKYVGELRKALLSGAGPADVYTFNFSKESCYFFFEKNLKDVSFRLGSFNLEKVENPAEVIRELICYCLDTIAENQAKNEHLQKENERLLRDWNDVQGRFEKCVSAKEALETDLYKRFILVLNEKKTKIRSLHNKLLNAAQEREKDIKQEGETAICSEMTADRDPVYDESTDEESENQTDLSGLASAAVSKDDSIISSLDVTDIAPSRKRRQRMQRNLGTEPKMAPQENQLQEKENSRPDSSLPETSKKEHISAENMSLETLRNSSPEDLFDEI
Chain of XRCC4 FL;XLF(1-248) (Q9H9Q4 1-248, chain 2 of 2): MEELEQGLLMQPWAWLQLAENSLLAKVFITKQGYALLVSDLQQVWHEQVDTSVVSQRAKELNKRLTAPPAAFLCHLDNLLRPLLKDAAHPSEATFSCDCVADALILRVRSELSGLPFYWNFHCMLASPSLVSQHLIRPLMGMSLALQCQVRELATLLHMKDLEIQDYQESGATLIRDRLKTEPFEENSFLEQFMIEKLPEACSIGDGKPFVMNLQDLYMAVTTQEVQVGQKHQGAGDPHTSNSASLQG

Chain of Ku70/80 heterodimer;XLF FL;XRCC4(1-140) (P12956 2-609, chain 1 of 4): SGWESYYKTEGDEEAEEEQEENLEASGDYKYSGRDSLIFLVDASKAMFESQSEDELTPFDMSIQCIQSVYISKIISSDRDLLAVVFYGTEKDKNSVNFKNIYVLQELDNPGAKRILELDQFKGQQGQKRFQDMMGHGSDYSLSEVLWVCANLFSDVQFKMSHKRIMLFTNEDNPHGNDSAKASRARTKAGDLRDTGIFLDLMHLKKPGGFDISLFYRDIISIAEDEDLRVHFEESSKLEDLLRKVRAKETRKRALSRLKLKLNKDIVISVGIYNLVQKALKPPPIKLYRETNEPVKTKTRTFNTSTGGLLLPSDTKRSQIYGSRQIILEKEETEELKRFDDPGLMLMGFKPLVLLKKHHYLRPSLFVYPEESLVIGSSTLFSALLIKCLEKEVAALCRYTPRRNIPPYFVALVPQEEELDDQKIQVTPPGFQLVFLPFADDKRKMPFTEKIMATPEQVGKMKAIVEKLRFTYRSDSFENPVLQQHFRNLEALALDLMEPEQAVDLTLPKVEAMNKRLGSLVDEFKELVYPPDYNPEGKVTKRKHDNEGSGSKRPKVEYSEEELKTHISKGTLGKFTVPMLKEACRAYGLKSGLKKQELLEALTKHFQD
Chain of Ku70/80 heterodimer;XLF FL;XRCC4(1-140) (P13010 2-732, chain 2 of 4): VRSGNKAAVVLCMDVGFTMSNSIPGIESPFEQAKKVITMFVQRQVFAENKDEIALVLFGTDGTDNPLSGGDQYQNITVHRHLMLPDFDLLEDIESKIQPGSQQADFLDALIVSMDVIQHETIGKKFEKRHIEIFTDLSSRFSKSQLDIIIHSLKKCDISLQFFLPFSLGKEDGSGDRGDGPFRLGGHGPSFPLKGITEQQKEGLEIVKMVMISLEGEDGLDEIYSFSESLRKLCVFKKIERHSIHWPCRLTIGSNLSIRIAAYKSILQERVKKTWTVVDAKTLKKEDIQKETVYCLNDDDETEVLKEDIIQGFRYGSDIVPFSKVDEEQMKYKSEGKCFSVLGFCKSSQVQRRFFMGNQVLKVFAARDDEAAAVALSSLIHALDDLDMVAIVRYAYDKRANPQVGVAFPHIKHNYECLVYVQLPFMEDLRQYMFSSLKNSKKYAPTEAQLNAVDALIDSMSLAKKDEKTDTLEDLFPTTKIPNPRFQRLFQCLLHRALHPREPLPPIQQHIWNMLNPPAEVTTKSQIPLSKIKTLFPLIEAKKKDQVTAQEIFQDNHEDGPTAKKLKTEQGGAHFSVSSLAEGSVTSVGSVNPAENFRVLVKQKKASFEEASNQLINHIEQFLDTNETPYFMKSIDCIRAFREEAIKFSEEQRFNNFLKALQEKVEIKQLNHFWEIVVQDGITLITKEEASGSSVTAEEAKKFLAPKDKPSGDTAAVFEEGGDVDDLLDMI
Chain of Ku70/80 heterodimer;XLF FL;XRCC4(1-140) (Q9H9Q4 whole entry, chain 3 of 4): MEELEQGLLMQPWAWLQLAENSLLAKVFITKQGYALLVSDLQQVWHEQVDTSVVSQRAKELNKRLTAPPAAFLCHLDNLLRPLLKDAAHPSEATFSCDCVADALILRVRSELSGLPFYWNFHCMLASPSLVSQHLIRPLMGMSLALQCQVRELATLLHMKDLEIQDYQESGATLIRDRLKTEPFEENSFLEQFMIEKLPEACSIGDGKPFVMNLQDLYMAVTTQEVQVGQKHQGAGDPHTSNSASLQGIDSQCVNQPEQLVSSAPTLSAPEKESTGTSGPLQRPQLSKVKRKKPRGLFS
Chain of Ku70/80 heterodimer;XLF FL;XRCC4(1-140) (Q13426 1-140, chain 4 of 4): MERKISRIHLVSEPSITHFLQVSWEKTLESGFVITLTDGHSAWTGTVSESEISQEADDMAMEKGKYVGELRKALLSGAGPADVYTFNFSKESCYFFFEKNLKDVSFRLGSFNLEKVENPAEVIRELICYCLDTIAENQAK
Chain of XLF(1-224);XRCC4(1-140) (Q9H9Q4 1-224, chain 1 of 2): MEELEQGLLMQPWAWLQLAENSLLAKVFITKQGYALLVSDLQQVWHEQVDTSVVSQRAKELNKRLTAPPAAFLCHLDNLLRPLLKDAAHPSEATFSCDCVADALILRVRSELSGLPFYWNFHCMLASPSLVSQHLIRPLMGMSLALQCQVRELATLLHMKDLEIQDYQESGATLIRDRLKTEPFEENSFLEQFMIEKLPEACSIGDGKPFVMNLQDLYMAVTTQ
Chain of XLF(1-224);XRCC4(1-140) (Q13426 1-140, chain 2 of 2): as the sequence (Q13426 1-140, chain 4 of 4) above
Chain of XLF(1-248) (Q9H9Q4 1-248): as the sequence (Q9H9Q4 1-248, chain 2 of 2) above
Chain of XRCC4 FL (Q13426 whole entry): as the sequence (Q13426 whole entry, chain 1 of 2) above
Chain of XLF FL (Q9H9Q4 whole entry): as the sequence (Q9H9Q4 whole entry, chain 3 of 4) above
Chain of XLF FL;XRCC4(1-140) (Q9H9Q4 whole entry, chain 1 of 2): as the sequence (Q9H9Q4 whole entry, chain 3 of 4) above
Chain of XLF FL;XRCC4(1-140) (Q13426 1-140, chain 2 of 2): as the sequence (Q13426 1-140, chain 4 of 4) above

B1: 40-bp DNA (dsDNA)
DNA 1: GGATACACAACAGACCGCAACACTCAGATTACTTTTCGCC
DNA 2: GGCGAAAAGTAATCTGAGTGTTGCGGTCTGTTGTGTATCC
What is called Kd is a measure of binding affinity in units of concentration. Regarding B1, the dissociation constant Kd in the data set with XLF FL was determined as 1600 ± 100 nM; in the data set with XLF(1-248), 2900 ± 200 nM; with XRCC4 FL it was 950 ± 50 nM; in the data set with XRCC4 FL;XLF(1-248), 700 ± 50 nM. The binding result (in data set [1]; in the data set with XLF FL;XRCC4(1-140); with XLF(1-224);XRCC4(1-140)) was “binds” in each case.

The values above are taken from PMC3173232.
